Laboratory results: US20200362051A1 (CRESCENDO BIOLOGICS, published 2020)
One block for each binder: values may come before it.

Key:
[1] = target: T1, human CD137-human Fc chimeric protein (Acro Biosystems cat no. 41B-H5258) (human, UniProt Q07011 24-186); assay: dual binding cell based ELISA: serially diluted VH on plated CHO human PSMA cells, then 1 nM CD137huFc, detection with anti human Fc-HRP, absorbance 450 nm
T1 construct: Bought protein; also called CD137-Fc tag protein; CD137huFc; not shown: human IgG1 Fc
Experimental: Association 1—Binding of the trispecific molecule to CD137Fc captured on protein G biosensors. Association 2—binding of Human serum Albumin, Association 3—Binding of PSMA in the presence of Human serum albumin to minimise HSA dissociation. […] Dual target engagement of CD137 and PSMA by the bispecific molecules was assessed using an ELISA format and by flow cytometry with T cells. For ELISA, CHO-PSMA cells (20000/well) were seeded into 96 well plates (Greiner cat no. 353872) in Hams F12 supplemented with L-Glutamine+Blasticidin+Tetracycline and incubated at 37° C. with 5% CO₂ overnight. All subsequent steps were performed at room temperature and included washes with PBS between each step. Plates were blocked with PBS/0.1% BSA for 1 hour then serially diluted Humabody® VH were added and allowed to bind for 1 hour. Following removal of unbound VH, 1 nM CD137huFc (Acro Biosystems cat no. 41B-H5258) was added to the wells and incubated for 1 hour. A 1:3000 dilution of Anti-huFc-HRP (Jackson ImmunoResearch cat no. 109-035-098) was subsequently added for 1 hour and plates developed by addition of TMB. The reaction was stopped by addition of 0.5M sulphuric acid and plates read on BMG PheraStar at Absorbance 450 nm. […] Fluorescence was measured in the RL2-H channels (Live/Dead stain) and BL1-H channel (AlexaFluor488 stain) on the iQue Plus Screener (IntelliCyt). […]

[2] = target: T2, human PSMA expressed on cells (human, UniProt Q04609 1-750); assay: dual-binding cell ELISA: CHO-PSMA cells, bound construct detected with 1 nM CD137huFc and anti-huFc-HRP; average ± SD, n=3
T2 construct: Type II membrane glycoprotein; also called CHO human PSMA; CHO PSMA
Experimental: (§1) Dual target engagement of CD137 and PSMA by the bispecific molecules was assessed using an ELISA format and by flow cytometry with T cells. For ELISA, CHO-PSMA cells (20000/well) were seeded into 96 well plates (Greiner cat no. 353872) in Hams F12 supplemented with L-Glutamine+Blasticidin+Tetracycline and incubated at 37° C. with 5% CO₂ overnight. All subsequent steps were performed at room temperature and included washes with PBS between each step. Plates were blocked with PBS/0.1% BSA for 1 hour then serially diluted Humabody® VH were added and allowed to bind for 1 hour. Following removal of unbound VH, 1 nM CD137huFc (Acro Biosystems cat no. 41B-H5258) was added to the wells and incubated for 1 hour. A 1:3000 dilution of Anti-huFc-HRP (Jackson ImmunoResearch cat no. 109-035-098) was subsequently added for 1 hour and plates developed by addition of TMB. The reaction was stopped by addition of 0.5M sulphuric acid and plates read on BMG PheraStar at Absorbance 450 nm. […] Human CD8+ T cells pre-stimulated for 48 hours with PMA/ionomycin were washed with FACS buffer (PBS supplemented with 10% human serum and 0.05% sodium azide) by centrifugation. Serially diluted bispecific and trispecific Humabody VH construct were added to the cells for 1 hour on ice. Plates were washed with FACS buffer then detection mix containing 5 nM biotinylated-PSMA, 20 nM Streptavidin AlexaFluor488 and Live/Dead NearIR cell stain dilution added. Plates were incubated at 4° C. for 1 hour then washed twice with FACS buffer by centrifugation. Cells were fixed by addition 1× BD Cell fix solution, then washed twice with PBS by centrifugation and the cell pellets resuspended in PBS. Fluorescence was measured in the RL2-H channels (Live/Dead stain) and BL1-H channel (AlexaFluor488 stain) on the iQue Plus Screener (IntelliCyt). The bispecific and trispecific molecules were able to simultaneously bind human CD8+ T cells and PSMA protein.

[3] = target: T3, rhesus CD137-human IgG1 Fc tagged protein (rhesus; human, UniProt F6W5G6 24-186); assay: SPR (Biacore T200), single cycle kinetics, rhesus CD137-Fc captured on Protein G chip, 25 C, 1:1 fit
T3 construct: also called rhesus CD137Fc; rhesus CD137Fc recombinant protein
T3 sequence: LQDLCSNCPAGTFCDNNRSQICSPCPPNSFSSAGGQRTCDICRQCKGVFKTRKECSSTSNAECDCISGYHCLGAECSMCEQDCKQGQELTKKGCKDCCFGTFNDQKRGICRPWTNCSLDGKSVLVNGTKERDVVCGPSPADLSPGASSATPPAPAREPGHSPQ
Experimental: (§2) The Biacore T200 instrument was used to study the interaction between VH with human and rhesus CD137-human IgG1 Fc tagged protein by surface plasmon resonance (SPR). Single cycle kinetics assays used to evaluate the kinetics and affinity of the interaction. Experiments were performed at 25° C. in HBS-EP+ assay buffer with a flow rate of 30 μl/minute. A Protein G chip was used to capture the Fc tagged recombinant CD137 diluted to 2 μg/ml to one of the flow cells over 7 seconds. A second flow cell without any captured CD137 was used as the reference cell. A five point, three-fold dilution series of VH was made with a top concentration of 60 nM. The binding kinetics were followed by flowing these over the chip surface. The contact time for each of the binding steps was 180 seconds and the dissociation step was 1800 and 3600 seconds for rhesus and human CD137 respectively. After each run, the sensors were regenerated with glycine pH 1.5 to remove the captured CD137. The data was fitted to a 1:1 binding model after double reference subtraction using the Biacore T200 Evaluation software.

[4] = target: T4, cynomolgus PSMA expressed on CHO cells (cynomolgus, UniProt A0A2K5VNZ0 1-750); assay: FMAT, CHO cynomolgus PSMA cells, detection with CD137huFc and anti human Fc-Alexa Fluor-488; n=3
T4 construct: whole, on cells; also called CHO cynomolgus PSMA cells

[5] = target: T5, human CD137 expressed on cells (human, UniProt Q07011 24-255); assay: dual-binding flow cytometry: pre-stimulated human CD8+ T cells, bound construct detected with 5 nM biotinylated-PSMA and streptavidin-AlexaFluor488; average ± SD, at least 6 donors
T5 construct: Whole entry with its signal peptide; also called 4-1BB; TNFRS9
Experimental: as §1, with “Serially diluted bispecific and trispecific Humabody VH construct were added to the cells for 1 hour on ice. Plates were washed with FACS buffer then detection mix containing 5 nM biotinylated-PSMA, 20 nM Streptavidin AlexaFluor488 and Live/Dead NearIR cell stain dilution added. Plates were incubated at 4° C. for 1 hour then washed twice with FACS buffer by centrifugation. Cells were fixed by addition 1× BD Cell fix solution, then washed twice with PBS by centrifugation and the cell pellets resuspended in PBS.” left out, “The bispecific and trispecific molecules were able to simultaneously bind human CD8+ T cells and PSMA protein.” left out

[6] = target: T3, rhesus CD137-human IgG1 Fc tagged …; assay: SPR (Biacore T200), single cycle kinetics, rhesus CD137-Fc captured on Protein G chip, 25 C, 1:1 fit; average ± SD
Experimental: as §2

T2 sequence (Q04609 whole entry): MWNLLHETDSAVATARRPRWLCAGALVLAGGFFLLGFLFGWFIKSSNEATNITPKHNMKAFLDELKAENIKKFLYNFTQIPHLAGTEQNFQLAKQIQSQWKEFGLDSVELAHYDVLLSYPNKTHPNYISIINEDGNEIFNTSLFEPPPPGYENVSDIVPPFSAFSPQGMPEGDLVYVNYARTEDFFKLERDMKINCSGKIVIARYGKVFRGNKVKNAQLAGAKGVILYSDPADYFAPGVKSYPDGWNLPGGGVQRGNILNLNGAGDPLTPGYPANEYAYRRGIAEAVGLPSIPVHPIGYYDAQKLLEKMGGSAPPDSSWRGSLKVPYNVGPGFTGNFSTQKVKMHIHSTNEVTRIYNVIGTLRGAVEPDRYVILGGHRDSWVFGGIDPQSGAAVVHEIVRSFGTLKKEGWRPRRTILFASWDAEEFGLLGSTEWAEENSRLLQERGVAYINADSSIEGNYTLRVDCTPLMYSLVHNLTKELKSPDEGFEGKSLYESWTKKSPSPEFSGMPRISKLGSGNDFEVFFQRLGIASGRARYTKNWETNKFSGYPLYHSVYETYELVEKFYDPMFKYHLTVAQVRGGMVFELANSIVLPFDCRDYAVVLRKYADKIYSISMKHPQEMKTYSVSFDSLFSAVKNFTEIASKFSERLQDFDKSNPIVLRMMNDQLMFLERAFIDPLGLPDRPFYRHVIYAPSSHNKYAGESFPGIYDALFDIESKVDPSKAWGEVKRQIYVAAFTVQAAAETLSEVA
T5 sequence (Q07011 24-255 limits assumed): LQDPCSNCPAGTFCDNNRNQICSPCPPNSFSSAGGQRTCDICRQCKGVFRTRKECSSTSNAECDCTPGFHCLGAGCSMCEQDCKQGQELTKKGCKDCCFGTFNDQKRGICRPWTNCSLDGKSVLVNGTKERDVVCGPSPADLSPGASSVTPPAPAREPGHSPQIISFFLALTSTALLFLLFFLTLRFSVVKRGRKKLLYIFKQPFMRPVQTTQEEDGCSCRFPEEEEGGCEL

EC50 [5]: 1.3 nM
EC50 [2]: 0.57 nM
B4: 4.1-6GS-1.113 (bispecific antibody)
chain: EVQLVESGGGVVQPGRSLRLSCAASGFSFSGYGMHWVRQAPGKGLEWVAYISYDGSNKYYADSVKGRFTISRDNSKNTLYLQMNSLRAEDTAVYYCAKDPAWGLRLGESSSYDFDIWGQGTMVTVSSGGGGSGGGGSGGGGSGGGGSGGGGSGGGGSEVQLVESGGGLVQPGGSLRLSCAASGFTLSNYWMNWVRQAPGKGLEWVANINQDGSERYYVDSVKGRFTISRDNAKNSLYLQMNSLRAEDTAVYYCARGGEGYGVDHYGLDVSGQGTTVTVSS
notes: the tested construct may be that one

Kd [6]: 0.27 nM
koff [6]: 0.00028 s⁻¹
kon [6]: 1.1e+06 M⁻¹ s⁻¹
B5: Humabody 1.113 (VHH)
VHH: EVQLVESGGGLVQPGGSLRLSCAASGFTLSNYWMNWVRQAPGKGLEWVANINQDGSERYYVDSVKGRFTISRDNAKNSLYLQMNSLRAEDTAVYYCARGGEGYGVDHYGLDVSGQGTTVTVSS

Second part, the binder before the results:

B1: Humabody VH 4.1 (VHH)
VHH: EVQLVESGGGVVQPGRSLRLSCAASGFSFSGYGMHWVRQAPGKGLEWVAYISYDGSNKYYADSVKGRFTISRDNSKNTLYLQMNSLRAEDTAVYYCAKDPAWGLRLGESSSYDFDIWGQGTMVTVSS
binding result [1]: no binding (tested: 1e-7 M (log10 -7))

B2: 4.1-6GS-VH HSA 6GS-1.113-4GS (bispecific antibody)
chain: EVQLVESGGGVVQPGRSLRLSCAASGFSFSGYGMHWVRQAPGKGLEWVAYISYDGSNKYYADSVKGRFTISRDNSKNTLYLQMNSLRAEDTAVYYCAKDPAWGLRLGESSSYDFDIWGQGTMVTVSSGGGGSGGGGSGGGGSGGGGSGGGGSGGGGSEVQLVESGGGLVQPGRSLRLSCAASGFTFHHYAMHWVRQAPGKGLEWVSGISWNGNKITYADSVKGRFTISRDNAKNSLYLQMNSLRAEDTALYYCVRDSSLFIVGAPTFEHWGRGTLVTVSSGGGGSGGGGSGGGGSGGGGSGGGGSGGGGSEVQLVESGGGLVQPGGSLRLSCAASGFTLSNYWMNWVRQAPGKGLEWVANINQDGSERYYVDSVKGRFTISRDNAKNSLYLQMNSLRAEDTAVYYCARGGEGYGVDHYGLDVSGQGTTVTVSSGGGGSGGGGSGGGGSGGGGS
notes: Trispecific single-chain fusion of three VH domains (PSMA, human serum albumin, CD137)
EC50 [2]: 1.1 nM

B3: 4.1-6GS-1.113-6GS-VH (HSA)-4GS (bispecific antibody)
chain: EVQLVESGGGVVQPGRSLRLSCAASGFSFSGYGMHWVRQAPGKGLEWVAYISYDGSNKYYADSVKGRFTISRDNSKNTLYLQMNSLRAEDTAVYYCAKDPAWGLRLGESSSYDFDIWGQGTMVTVSSGGGGSGGGGSGGGGSGGGGSGGGGSGGGGSEVQLVESGGGLVQPGGSLRLSCAASGFTLSNYWMNWVRQAPGKGLEWVANINQDGSERYYVDSVKGRFTISRDNAKNSLYLQMNSLRAEDTAVYYCARGGEGYGVDHYGLDVSGQGTTVTVSSGGGGSGGGGSGGGGSGGGGSGGGGSGGGGSEVQLVESGGGLVQPGRSLRLSCAASGFTFHHYAMHWVRQAPGKGLEWVSGISWNGNKITYADSVKGRFTISRDNAKNSLYLQMNSLRAEDTALYYCVRDSSLFIVGAPTFEHWGRGTLVTVSSGGGGSGGGGSGGGGSGGGGS
notes: Trispecific single-chain fusion of three VH domains (PSMA, CD137, human serum albumin)
Kd [3]: 0.12 nM
koff [3]: 5.2e-05 s⁻¹
kon [3]: 440000 M⁻¹ s⁻¹
EC50 [4]: 0.57 nM
EC50 [2]: 2.2 nM
